Experimental data as given in patent US20190328900A1 (GlaxoSmithKline, published 2019).
“And” between values parts separate entries of the source, which are not always exact repeats. Equal entries are not always repeated.

B1: VRC01-SA antibody-drug conjugate (antibody, human IgG1, V domains shown)
VH: QVQLVQSGGQMKKPGESMRISCRASGYEFIDCTLNWIRLAPGKRPEWMGWLKPRGGAVNYARPLQGRVTMTRDVYSDTAFLELRSLTVDDTAVYFCTRGKNCDYNWDFEHWGRGTPVIVSS
VL: EIVLTQSPGTLSLSPGETAIISCRTSQYGSLAWYQQRPGQAPRLVIYSGSTRAAGIPDRFSGSRWGPDYNLTISNLESGDFGVYYCQQYEFFGQGTKVQVDI
modifications: payload-linker SA conjugated to lysines; sites and chain not stated; payload-linker SA (short linker payload A, succinimidyl ester) conjugated to lysines; sites and chain not stated; MS DAR 3.0
B2: VRC01 broadly neutralizing antibody (antibody, human IgG1, V domains shown)
VH: B1 VH
VL: B1 VL
B3: VRC01-SB antibody-drug conjugate (antibody, human IgG1, V domains shown)
VH: B1 VH
VL: B1 VL
modifications: payload-linker SB conjugated to lysines; sites and chain not stated; payload-linker SB (short linker payload B, succinimidyl ester) conjugated to lysines; sites and chain not stated; MS DAR 3.9
B4: VRC01-LA antibody-drug conjugate (antibody, human IgG1, V domains shown)
VH: B1 VH
VL: B1 VL
modifications: payload-linker LA conjugated to lysines; sites and chain not stated; payload-linker LA (long linker payload A, succinimidyl ester) conjugated to lysines; sites and chain not stated; MS DAR 3.4
B5: VRC01-LB antibody-drug conjugate (antibody, human IgG1, V domains shown)
VH: B1 VH
VL: B1 VL
modifications: payload-linker LB conjugated to lysines; sites and chain not stated; payload-linker LB (long linker payload B, succinimidyl ester) conjugated to lysines; sites and chain not stated; MS DAR 3.8
B6: VRC01-LA-LB dual-payload antibody-drug conjugate (antibody, human IgG1, V domains shown)
VH: B1 VH
VL: B1 VL
modifications: payload-linkers LA and LB conjugated to lysines; sites and chain not stated; payload-linkers LA and LB conjugated to lysines; sites and chain not stated; MS DAR 1.6 (LA) and 1.2 (LB)
B7: VRC01-LA-SB dual-payload antibody-drug conjugate (antibody, human IgG1, V domains shown)
VH: B1 VH
VL: B1 VL
modifications: payload-linkers LA and SB conjugated to lysines; sites and chain not stated; payload-linkers LA and SB conjugated to lysines; sites and chain not stated; MS DAR 1.6 (LA) and 1.3

What follows are binders tested against T1, HIV gp160 envelope glycoprotein on pseudotyped virus (clone not named) (HIV) (assay: cell-based or functional assay).

| Binder | IC50 (N = 1), pseudotyped virus (PSV) infection, luciferase | IC50 (N = 2), pseudotyped virus (PSV) infection, luciferase |
| --- | --- | --- |
| B1 | ~2.7 nM and 0.418 µg/mL | 0.226 µg/mL and ~1.5 nM |
| B2 | ~667 nM | ~667 nM |
| B3 | 0.617 µg/mL and ~4 nM | 0.772 µg/mL |
| B4 | 0.0753 µg/mL and ~0.5 nM | 0.0413 µg/mL and ~0.27 nM |
| B5 | 0.526 µg/mL and ~3.4 nM | ~1.9 nM |

Target: T1, HIV gp160 envelope glycoprotein on …
Assay: cell-based or functional assay
Remark: another data set of the same source

| Binder | IC50 (N = 1), pseudotyped virus (PSV) infection, luciferase | IC50 (N = 2), pseudotyped virus (PSV) infection, luciferase |
| --- | --- | --- |
| B6 | 0.154 µg/mL | 0.107 µg/mL and ~0.7 nM |
| B7 | 0.104 µg/mL and ~0.7 nM | 0.106 µg/mL and ~0.7 nM |
